Results: paper PMC3429473, “The Weak Complex between RhoGAP Protein ARHGAP22 and Signal Regulatory Protein 14-3-3 Has 1∶2 Stoichiometry and a Single Peptide Binding Mode” (PLoS ONE, 2012)
Read-outs that look alike come from different tables or passages of the source.

Assays:
AG22 (1–145) S16D = molecular target: T1, AG22 (1–145) S16D (human); assay: cross-linking; AG22 proteins (10 µM) and 14-3-3 (30 µM), alone or mixed, in 50 mM HEPES pH 8.6 with 3 mM BS3 at room temperature for 5 to 30 min; SDS-PAGE, Coomassie Blue; details: both partners purified
T1 chain: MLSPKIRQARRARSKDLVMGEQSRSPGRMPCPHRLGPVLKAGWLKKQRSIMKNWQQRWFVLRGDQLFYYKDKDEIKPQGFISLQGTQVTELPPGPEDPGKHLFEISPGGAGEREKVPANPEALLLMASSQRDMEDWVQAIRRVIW

[1] = molecular target: the molecule itself; assay: as above
[2] = molecular target: AG22 (1–422) S16D/S411D phosphomimic double mutant (human); assay: cross-linking + SEC; 1:2 mixture cross-linked with BS3 for 30 min in 50 mM Hepes pH 8.6, purified by gel filtration, then analytical Superdex S200 10/300GL in 25 mM HEPES pH 7.5, 150 mM NaCl, 2 mM β-ME
[3] = molecular target: AG22 (1-422) S16D/S411D (human); assay: small-angle X-ray scattering (SAXS) titration; AG22 (1-422) S16D/S411D at 26.5 µM (1.25 mg/mL) pre-mixed with 14-3-3 at molar 14-3-3_(2):AG22 ratios of 0.5:1.0, 1.0:1.0, 1.5:1.0 and 2.0:1.0, about 1 hour on ice, measured at room temperature (295 K); scattering fitted as a linear combination of the profiles of 14-3-3_(2), AG22 and the cross-linked complex; Kd = (W_AG22 x W_14-3-3)/W_Complex for each titration point
[4] = molecular target: wild type AG22 (1–422) (human); assay: cross-linking; AG22 proteins (10 µM) and 14-3-3 (30 µM), alone or mixed, in 50 mM HEPES pH 8.6 with 3 mM BS3 at room temperature for 5 to 30 min; SDS-PAGE, Coomassie Blue
[5] = molecular target: AG22 (1–422) S16D/S411D phosphomimic double mutant (human); assay: as above
[6] = molecular target: AG22 (1–422) S16D/S411D phosphomimic double mutant (human); assay: SAXS titration; AG22 (1–422) S16D/S411D at 26.5 µM (1.25 mg/mL) mixed with 14-3-3 dimer at molar ratios 0.5, 1.0, 1.5 and 2.0; about 1 h on ice; data fitted as linear combinations of the profiles of the two proteins and of the cross-linked complex; Kd counted on the 14-3-3 dimer
[7] = molecular target: AG22 (1-422) S16D/S411D (human); assay: small-angle X-ray scattering (SAXS) titration; AG22 (1-422) S16D/S411D at 26.5 µM (1.25 mg/mL) pre-mixed with 14-3-3 at molar 14-3-3_(2):AG22 ratios of 0.5:1.0, 1.0:1.0, 1.5:1.0 and 2.0:1.0, about 1 hour on ice, measured at room temperature (295 K); scattering fitted as a linear combination of the profiles of 14-3-3_(2), AG22 and the cross-linked complex; Kd = (W_AG22 x W_14-3-3)/W_Complex for each titration point; remark: listed apart in the source
[8] = molecular target: AG22 (1-422) S16D/S411D (human); assay: as above; remark: listed apart in the source

stoichiometry N (AG22 (1–145) S16D): 2 14-3-3 chains per AG22 molecule | stoichiometry N (14-3-3 chains per AG22 molecule) [2]: 2 | Kd [3]: 27.4 µM | Kd ([3]; record 2): 30.6 µM | stoichiometry N (14-3-3 chains per AG22 molecule) [4]: 2 | stoichiometry N (14-3-3 chains per AG22 molecule) [5]: 2 | Kd [6]: 28 µM | Kd [7]: 20.9 µM | Kd [8]: 34.2 µM
B1: human 14-3-3 β (natural protein)
chain: MTMDKSELVQKAKLAEQAERYDDMAAAMKAVTEQGHELSNEERNLLSVAYKNVVGARRSSWRVISSIEQKTERNEKKQQMGKEYREKIEAELQDICNDVLELLDKYLIPNATQPESKVFYLKMKGDYFRYLSEVASGDNKQTTVSNSQQAYQEAFEISKKEMQPTHPIRLGLALNFSVFYYEILNSPEKACSLAKTAFDEAIAELDTLNEESYKDSTLIMQLLRDNLTLWTSENQGDEG
notes: human 14-3-3 β isoform, codon-optimized synthetic gene (GeneArt) in pET20b; calculated monomer mass 29.3 kDa; the printed monomer mass of 29.3 kDa would fit the whole protein with the tag; Dimer by cross-linking and SAXS; also called 14-3-3_(2); 14-3-3 β isoform; not shown: His6, C-terminal, kept
stoichiometry N [1]: 2
